From patent US20190382474A1 (SURFACE ONCOLOGY, published 2019)

Tests used:
recombinant human IL-27 [1] = target: T1, recombinant human IL-27 (human, UniProt Q14213 21-229; Q8NEV9 29-243); assay: cell-based or functional assay
T1 sequence 1: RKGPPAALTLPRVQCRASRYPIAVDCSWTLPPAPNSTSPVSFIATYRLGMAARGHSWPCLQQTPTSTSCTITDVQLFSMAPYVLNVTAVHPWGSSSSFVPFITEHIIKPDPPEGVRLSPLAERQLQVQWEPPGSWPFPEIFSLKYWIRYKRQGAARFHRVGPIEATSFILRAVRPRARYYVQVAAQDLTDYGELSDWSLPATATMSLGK
T1 sequence 2: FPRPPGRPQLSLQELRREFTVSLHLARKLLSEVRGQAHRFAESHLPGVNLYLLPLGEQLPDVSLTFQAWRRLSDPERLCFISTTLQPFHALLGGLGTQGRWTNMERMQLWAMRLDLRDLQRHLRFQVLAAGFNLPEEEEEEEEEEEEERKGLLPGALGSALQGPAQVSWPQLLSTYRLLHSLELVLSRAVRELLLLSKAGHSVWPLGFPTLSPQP

recombinant human IL-27 [2] = target: T1, recombinant human IL-27; assay: cell-based or functional assay; remark: listed apart in the source
recombinant mouse IL-27 [3] = target: T2, recombinant mouse IL-27 (mouse, UniProt O35228 19-228; Q8K3I6 29-234, limits assumed); assay: cell-based or functional assay
T2 sequence (looked up) 1: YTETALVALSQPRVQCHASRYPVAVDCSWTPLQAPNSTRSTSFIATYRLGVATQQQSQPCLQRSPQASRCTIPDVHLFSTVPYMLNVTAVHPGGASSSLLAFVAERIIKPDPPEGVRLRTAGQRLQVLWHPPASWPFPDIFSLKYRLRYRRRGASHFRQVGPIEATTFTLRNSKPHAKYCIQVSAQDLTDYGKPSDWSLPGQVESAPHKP
T2 sequence (looked up) 2: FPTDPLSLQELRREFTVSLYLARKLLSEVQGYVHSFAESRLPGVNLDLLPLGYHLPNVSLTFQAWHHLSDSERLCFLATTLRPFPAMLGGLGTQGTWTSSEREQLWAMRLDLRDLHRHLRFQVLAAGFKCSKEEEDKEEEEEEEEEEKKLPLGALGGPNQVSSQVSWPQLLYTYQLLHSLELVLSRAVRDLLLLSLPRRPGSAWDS

recombinant rat IL-27 [4] = target: T3, recombinant rat IL-27 (rat, UniProt D3ZPW3 29-234; M0RD76 19-228); assay: cell-based or functional assay
T3 sequence (alpha): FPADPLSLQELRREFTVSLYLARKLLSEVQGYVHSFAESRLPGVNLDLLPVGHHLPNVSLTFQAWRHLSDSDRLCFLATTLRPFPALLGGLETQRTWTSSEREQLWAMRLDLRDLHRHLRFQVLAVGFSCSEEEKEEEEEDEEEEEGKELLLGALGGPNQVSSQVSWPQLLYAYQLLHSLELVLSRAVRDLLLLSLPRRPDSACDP
T3 sequence (beta): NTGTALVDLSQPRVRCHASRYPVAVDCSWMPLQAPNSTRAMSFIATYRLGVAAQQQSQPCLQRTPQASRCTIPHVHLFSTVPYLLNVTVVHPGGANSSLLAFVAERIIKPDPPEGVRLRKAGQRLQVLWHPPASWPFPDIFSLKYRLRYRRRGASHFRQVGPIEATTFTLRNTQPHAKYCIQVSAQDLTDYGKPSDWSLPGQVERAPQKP

[5] = target: T4, recombinant cynomolgus monkey IL-27 (cynomolgus monkey, UniProt A0A2K5WPB7 36-244; A0A2K5UBM6 29-244); assay: cell-based or functional assay
T4 sequence 1: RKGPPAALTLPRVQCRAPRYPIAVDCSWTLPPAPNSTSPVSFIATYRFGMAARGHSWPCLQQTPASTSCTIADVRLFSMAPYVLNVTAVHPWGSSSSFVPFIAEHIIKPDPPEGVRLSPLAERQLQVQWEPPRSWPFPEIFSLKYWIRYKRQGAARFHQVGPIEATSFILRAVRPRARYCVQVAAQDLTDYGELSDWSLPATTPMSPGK
T4 sequence 2: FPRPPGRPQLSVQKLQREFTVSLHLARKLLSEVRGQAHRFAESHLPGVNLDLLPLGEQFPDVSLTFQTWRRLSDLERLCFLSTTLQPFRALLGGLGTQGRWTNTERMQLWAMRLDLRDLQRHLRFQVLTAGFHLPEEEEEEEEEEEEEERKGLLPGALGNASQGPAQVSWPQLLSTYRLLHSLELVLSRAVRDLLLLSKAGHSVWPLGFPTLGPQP

p28 subunit of IL-27 = target: T5, p28 subunit of IL-27 (Homo sapiens (Human), UniProt Q8NEV9 29-243, limits assumed); assay: biochemical affinity and specificity studies
T5 construct: the reagent used in the specificity studies is not described; also called IL-27p28
T5 sequence: T1 sequence 2

EBI3 subunit of IL-27 = target: T6, EBI3 subunit of IL-27 (Homo sapiens (Human), UniProt Q14213 21-229, limits assumed); assay: biochemical affinity and specificity studies
T6 construct: the reagent used in the specificity studies is not described
T6 sequence: T1 sequence 1

recombinant human IL-27 [6] = target: T1, recombinant human IL-27; assay: SPR (BIACORE 2000) as the paragraph says; values in FIG. 9
recombinant mouse IL-27 [7] = target: T2, recombinant mouse IL-27; assay: column 'Affinity mIL-27 (M)'; method not given
recombinant mouse IL-27 [8] = target: T2, recombinant mouse IL-27; assay: binding kinetics, SRF388 with IL-27 as analyte (instrument not named)
recombinant rat IL-27 [9] = target: T3, recombinant rat IL-27; assay: as above
[10] = target: T4, recombinant cynomolgus monkey IL-27; assay: as above
recombinant human IL-27 [11] = target: T1, recombinant human IL-27; assay: binding kinetics, SRF388 at 1 ug/mL, IL-27 as analyte at 0 to 5.0 ug/mL (instrument not named)
Description: The association and dissociation of recombinant human IL-27 at concentrations ranging from 0 to 5.0 μg/mL with an SRF388 concentration of 1 μg/mL were determined.

recombinant human IL-27 [12] = target: T1, recombinant human IL-27; assay: column 'Affinity hIL-27 (M)', property (i); method not given, paragraph 885 names SPR (BIACORE 2000)

B1: SRF388 (antibody, V domains shown)
VH: EVQLVESGGGLVKPGGSLRLSCAASGFTFRSYGMNWVRQAPGKGLEWVSGISSSGSYIYYADSVKGRFTISRDNAKNSLYLQMNSLRAEDTAVYYCARDGGRTSYTATAHNWFDPWGQGTLVTVSS
VL: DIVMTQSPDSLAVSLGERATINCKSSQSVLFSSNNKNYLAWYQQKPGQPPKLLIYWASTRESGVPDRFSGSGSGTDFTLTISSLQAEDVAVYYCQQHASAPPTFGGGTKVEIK
notes: also called SRF388-A; SRF388-B
**Q.** Which “IC50 of inhibition of phosphorylation of STAT1 in HUT-78 cells” value (recombinant human IL-27 [1]) does the source give for B1 here?
**A.** Its value is 0.095 µg/mL.

**Q.** And the “IC50 of inhibition of phosphorylation of STAT1 in U937 cells” value (recombinant human IL-27 [1])?
**A.** Its value is 0.096 µg/mL.

**Q.** What about the “IC50 of inhibition of phosphorylation of STAT1 in pooled human PBMCs” value (recombinant human IL-27 [1]) of the same binder?
**A.** Its value is 0.0583 µg/mL.

**Q.** What about the “Average IC50, pSTAT1 in peripheral blood T cells, human whole blood” value (recombinant human IL-27 [2]) of the same binder?
**A.** The value was 78.4 ng/mL.

**Q.** What about the “Average IC50, pSTAT1 in peripheral blood T cells, mouse whole blood” value (recombinant mouse IL-27 [3]) of the same binder?
**A.** The value was 1720 ng/mL.

**Q.** What about the “Average IC50, pSTAT1 in peripheral blood T cells, rat whole blood” value (recombinant rat IL-27 [4]) of the same binder?
**A.** Its value is 273 ng/mL.

**Q.** And the “Average IC50, pSTAT1 in peripheral blood T cells, cynomolgus monkey whole blood” value [5]?
**A.** Its value is 118 ng/mL.

**Q.** Does B1 bind (p28 subunit of IL-27)?
**A.** Result: binds

**Q.** Does B1 bind (EBI3 subunit of IL-27)?
**A.** Result: no binding

**Q.** What about the Kd (recombinant human IL-27 [6]) of the same binder?
**A.** The Kd was ≤ 15 nM.

**Q.** And the Kd (recombinant mouse IL-27 [7])?
**A.** Its Kd is 0.594 nM.

**Q.** And the Kd (recombinant mouse IL-27 [8])?
**A.** The Kd was 4.43 nM.

**Q.** And the koff (recombinant mouse IL-27 [8])?
**A.** Its koff is 0.000244 s⁻¹.

**Q.** What about the kon (recombinant mouse IL-27 [8]) of the same binder?
**A.** The kon was 55000 M⁻¹ s⁻¹.

**Q.** And the Kd (recombinant rat IL-27 [9])?
**A.** Its Kd is 0.0809 nM.

**Q.** And the koff (recombinant rat IL-27 [9])?
**A.** Its koff is 0.000189 s⁻¹.

**Q.** What about the kon (recombinant rat IL-27 [9]) of the same binder?
**A.** Its kon is 2.34e+06 M⁻¹ s⁻¹.

**Q.** And the Kd [10]?
**A.** The Kd was 0.0374 nM.

**Q.** What about the koff [10] of the same binder?
**A.** Its koff is 1.19e-05 s⁻¹.

**Q.** What about the kon [10] of the same binder?
**A.** The kon was 318000 M⁻¹ s⁻¹.

**Q.** And the Kd (recombinant human IL-27 [11])?
**A.** The Kd was 0.00386 nM.

**Q.** What about the koff (recombinant human IL-27 [11]) of the same binder?
**A.** Its koff is 1.97e-06 s⁻¹.

**Q.** And the kon (recombinant human IL-27 [11])?
**A.** Its kon is 510000 M⁻¹ s⁻¹.

**Q.** What about the Kd (recombinant human IL-27 [12]) of the same binder?
**A.** Its Kd is 0.0013 nM.
